# Experimental data reported in the supplement of paper PMC11316812.
# ± gives the standard deviation of the averaged measurements.
# What was measured:
# MCF7 = experiment: percentage of EdU-negative (G0-arrested) nuclei per well, 72 h; higher = more G0 arrest; conditions: reference: sequence is the full UniProt precursor, the tested protein was the secreted form or ectodomain
# hTERT-HMEC = experiment: as above; conditions: reference: sequence is the full UniProt precursor, the tested protein was the secreted form or ectodomain
# [1] = protein concentration 0.0225 µM
# [2] = protein concentration 0.0357143 µM
# [3] = protein concentration 0.357143 µM
# [4] = protein concentration 0.0240725 µM
# [5] = protein concentration 0.240725 µM
# 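Note: secreted proteins added to cultured cells, EdU pulse at the end, nuclei found by Hoechst imaging, EdU status from nuclear versus surrounding ring intensity ratio, PBS as neutral control.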
Sequence,percentage of EdU-negative (MCF7; [1]) [%],percentage of EdU-negative (MCF7; protein concentration 0.225 µM) [%],percentage of EdU-negative (hTERT-HMEC; [1]) [%],percentage of EdU-negative (hTERT-HMEC; protein concentration 0.225 µM) [%],further results
MEGGDQSEEEPRERSQAGGMGTLWSQESTPEERLPVEGSRPWAVARRVLTAILILGLLLCFSVLLFYNFQNCGPRPCETSVCLDLRDHYLASGNTSVAPCTDFFSFACGRAKETNNSFQELATKNKNRLRRILEVQNSWHPGSGEEKAFQFYNSCMDTLAIEAAGTGPLRQVIEELGGWRISGKWTSLNFNRTLRLLMSQYGHFPFFRAYLGPHPASPHTPVIQIDQPEFDVPLKQDQEQKIYAQIFREYLTYLNQLGTLLGGDPSKVQEHSSLSISITSRLFQFLRPLEQRRAQGKLFQMVTIDQLKEMAPAIDWLSCLQATFTPMSLSPSQSLVVHDVEYLKNMSQLVEEMLLKQRDFLQSHMILGLVVTLSPALDSQFQEARRKLSQKLRELTEQPPMPARPRWMKCVEETGTFFEPTLAALFVREAFGPSTRSAAMKLFTAIRDALITRLRNLPWMNEETQNMAQDKVAQLQVEMGASEWALKPELARQEYNDIQLGSSFLQSVLSCVRSLRARIVQSFLQPHPQHRWKVSPWDVNAYYSVSDHVVVFPAGLLQPPFFHPGYPRAVNFGAAGSIMAHELLHIFYQLLLPGGCLACDNHALQEAHLCLKRHYAAFPLPSRTSFNDSLTFLENAADVGGLAIALQAYSKRLLRHHGETVLPSLDLSPQQIFFRSYAQVMCRKPSPQDSHDTHSPPHLRVHGPLSSTPAFARYFRCARGALLNPSSRCQLW,26.89 ± 0.16,27.1 ± 3.5,4.88 ± 0.16,6.43 ± 0.18,–
MDPRLPAWALVLLGPALVFALGPAPTPEMREKLCGHHFVRALVRVCGGPRWSTEARRPATGGDRELLQWLERRHLLHGLVADSNLTLGPGLQPLPQTSHHHRHHRAAATNPARYCCLSGCTQQDLLTLCPY,27 ± 2.5,26.9 ± 2.5,6.04 ± 0.67,5.1 ± 0.54,–
MKRVLVLLLAVAFGHALERGRDYEKNKVCKEFSHLGKEDFTSLSLVLYSRKFPSGTFEQVSQLVKEVVSLTEACCAEGADPDCYDTRTSALSAKSCESNSPFPVHPGTAECCTKEGLERKLCMAALKHQPQEFPTYVEPTNDEICEAFRKDPKEYANQFMWEYSTNYGQAPLSLLVSYTKSYLSMVGSCCTSASPTVCFLKERLQLKHLSLLTTLSNRVCSQYAAYGEKKSRLSNLIKLAQKVPTADLEDVLPLAEDITNILSKCCESASEDCMAKELPEHTVKLCDNLSTKNSKFEDCCQEKTAMDVFVCTYFMPAAQLPELPDVELPTNKDVCDPGNTKVMDKYTFELSRRTHLPEVFLSKVLEPTLKSLGECCDVEDSTTCFNAKGPLLKKELSSFIDKGQELCADYSENTFTEYKKKLAERLKAKLPDATPTELAKLVNKHSDFASNCCSINSPPLYCDSEIDAELKNIL,–,–,–,–,percentage of EdU-negative (MCF7; [2]): 25.9 ± 0.66%; percentage of EdU-negative (MCF7; [3]): 27.2 ± 1.1%; percentage of EdU-negative (hTERT-HMEC; [2]): 6.02 ± 1.8%; percentage of EdU-negative (hTERT-HMEC; [3]): 16.1 ± 0.49%
MGAGATGRAMDGPRLLLLLLLGVSLGGAKEACPTGLYTHSGECCKACNLGEGVAQPCGANQTVCEPCLDSVTFSDVVSATEPCKPCTECVGLQSMSAPCVEADDAVCRCAYGYYQDETTGRCEACRVCEAGSGLVFSCQDKQNTVCEECPDGTYSDEANHVDPCLPCTVCEDTERQLRECTRWADAECEEIPGRWITRSTPPEGSDSTAPSTQEPEAPPEQDLIASTVAGVVTTVMGSSQPVVTRGTTDNLIPVYCSILAAVVVGLVAYIAFKRWNSCKQNKQGANSRPVNQTPPPEGEKLHSDSGISVDSQSLHDQQPHTQTASGQALKGDGGLYSSLPPAKREEVEKLLNGSAGDTWRHLAGELGYQPEHIDSFTHEACPVRALLASWATQDSATLDALLAALRRIQRADLVESLCSESTATSPV,–,–,–,–,percentage of EdU-negative (MCF7; [4]): 24.6 ± 0.37%; percentage of EdU-negative (MCF7; [5]): 23 ± 1.5%; percentage of EdU-negative (hTERT-HMEC; [4]): 4.77 ± 0.43%; percentage of EdU-negative (hTERT-HMEC; [5]): 4.6 ± 0.64%
MAAAAMAAAAGGGAGAARSLSRFRGCLAGALLGDCVGSFYEAHDTVDLTSVLRHVQSLEPDPGTPGSERTEALYYTDDTAMARALVQSLLAKEAFDEVDMAHRFAQEYKKDPDRGYGAGVVTVFKKLLNPKCRDVFEPARAQFNGKGSYGNGGAMRVAGISLAYSSVQDVQKFARLSAQLTHASSLGYNGAILQALAVHLALQGESSSEHFLKQLLGHMEDLEGDAQSVLDARELGMEERPYSSRLKKIGELLDQASVTREEVVSELGNGIAAFESVPTAIYCFLRCMEPDPEIPSAFNSLQRTLIYSISLGGDTDTIATMAGAIAGAYYGMDQVPESWQQSCEGYEETDILAQSLHRVFQKS [Q9NX46],24.5 ± 2.2,29.1 ± 3.5,4.73 ± 1.1,7.08 ± 0.11,–
